Test results published in the domain aggregation screens of Martell et al. (2025).

Assay: soluble fraction after stress (log2 fold change); higher = more stays soluble; pooled small domains, quantitative proteomics
Conditions: stress: pH 4
Summary of the method: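 Custom libraries of small protein domains were pooled and measured with high-throughput quantitative proteomics after pH 4 stress. The read-out is the fold change in the amount of each domain that stays soluble after the acid stress, taken as a measure of aggregation propensity. Fold changes are on a log2 scale, and higher values mean more of the domain stayed soluble.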

“HMEQMSPYPNPSKGKIQFHNQEPMDIKVFNSLGQIVFEQRILSRAILDLSRLSPGQYIVQAGEQKNIWIK” and “HMNERIKSLRKALGLTQQEFADKLGISRGNIGAYEVGKNAPSDAVISLIVRIFNTNENWLRTGEGEM” are within 0.2 log units of each other in “soluble fraction (log2)” value: -0.293 for the first, -0.246 for the second.

First: HMSAATGIINTDNVNIRSGPATTYDAVGRLNQGSSVEILSSRNDWYQIQANSLKGWVRNDLLNVQK
Second: HMSPSRRENLTAAAKEYFVNTQIRHKTFGNGVIIKRSGNIAAIRFDNGTIKQIDLIAALQAKVLSIL
The “soluble fraction (log2)” value of the first is higher: 0.0683 for the first, -0.512 for the second.

Going from “HMENINIRNMGIRAVEAAIISLSPDQRTFTWGATNKKLVTVPYEENPYSALAAFFKTDDGIEIYDAIEKRL” to “HMNKYYQQLLQADPTGFIDPFKDLGTYDSRLNTFKEPVSELLNPFSGRPYSKIWQKRIETMREIFISYIKS”, the “soluble fraction (log2)” value rises from -0.881 to -0.213.

“HMTLYITDQMRKILDYVATNQEIDEKAVMDLLSIQRTRAYLIAKKMTDIGLLQVQGRGKTKTYRLAARS” and “HMEVPTGNHIRRWRKSLDITQVKLSSLSGVAQSIIAKIENETVDPRVSTLRKLVEALSRFENP” are within 0.2 log units of each other in “soluble fraction (log2)” value: -0.285 for the first, -0.358 for the second.

First: HMVFSKEELLFNSDSLLSLYPNDNKLLETILSEKIDHAVKNNDMSMYKEILVIDPKNPLANYHLLM
Second: HMRPIDEVFGFFSRPENLTVITPSNLHFNILTPRPLEMKQGAVIDYTIKIFKVPIHWRTLITTYDPPFKFV
The “soluble fraction (log2)” value of the first is higher: 0.17 for the first, -0.399 for the second.

Compared with “HMNKYQFESKIHIYRATKRMTQQELADLVGVSRQTIMQLERNRYNPSMMLAYGIAKVFDVTIEDLFDFSEV”, “HMGVLGVDALAAAAEVSVDTVRYYQHLGLLEPPRREGRRAVYGPSHLARMGEIRRLAAAGFTLDQIRQLAE” is lower in “soluble fraction (log2)” value: 0.0457 for the first, -1.62 for the second.

First: HMNNGYSINEIAKLMKMTLKVVRRYVASGELKTTKTNNTYSISEEAFNEFKKYIEEGGDAKHAQEVADTFK
Second: HMGSQSYVAIVNERFKESDIVELGGSVGSRTGDIITLHFRNSSPNELKNITGIVYLQVANKVTPKL
The “soluble fraction (log2)” value of the first is higher: -0.554 for the first, -0.875 for the second.

“HMKIPGIGDVYAILARVYSGPQFTWIEAGFPEDDTKAYSYLHTAIRKGSAIAILQAMRTSGALTPTIEKE” and “HMTATWLTYYRIKAGLTQKRLAELAGLNIRQVQKIENGETLAGNTTAKNLLALADALGIDPHKL” are within 0.2 log units of each other in “soluble fraction (log2)” value: -0.457 for the first, -0.381 for the second.

Going from “HMDDPYAGLRQRAYLFLRERDGAVPEEELIEHVFGSSGNPALWRPLLRQVLGADDRLDLRADGYWALRG” to “HMAGTAFPVRIMLKGIDRIGLLNEITGYISVAMGVNMRKLNLSTEDGIFEGYIDMLVHDRTVLESMIDNL”, the “soluble fraction (log2)” value rises from -0.839 to 0.22.

“HMDAHIGTLTPRERETLHHLAIGHSNKVIAKKLNLAESTVKAYVQSILRKLGLSSRVQAAVYAIQHDIR” and “HMDIADKLTKREFEIFIAIAMNKSRFDIANELGLSAKTVSNGLTVIKRKLNAVPSQFSAIAAKHGYIG” are within 0.2 log units of each other in “soluble fraction (log2)” value: -0.23 for the first, -0.408 for the second.

“HMKELLTKQQREEILETVKTKTPKDFGYTAEHWTTGFLGKWIEEHYEVEYKSKTSLYLVFKKASFTYHKPG” and “HMRGQLADLWLPREQARRAAEIVAARPVPLGSVKTWIARGKLAPRKTGTGPALYRVGALVSLLAKS” are within 0.2 log units of each other in “soluble fraction (log2)” value: 0.0606 for the first, 0.133 for the second.

Compared with “HMTGPSYTTRRVEAAETMMEFLRTFPQAAPFIGDLYVKAQDWPLGEEIGDRLKKMLPPQLQE”, “HMSYGDLTGRTVVITGASKGIGARASRVLAQAGASVVGLARSVDELTALKYDLENDGLSFDFG” is higher in “soluble fraction (log2)” value: -0.451 for the first, at least 0.43 for the second.

“HMLTRSASREELDQLLKRLRQNLKQKNFFWPPDKEKSLVLYLENLFSKFPLNSSDIRFLHGIIRTLSEK” and “HMTVKKLIINEDNSGRRIDNYLLSIFNSVPRSKIYNIIRKGEVRVNSSRIKPSYRLEEGDQVRIPPNLDYT” are within 0.2 log units of each other in “soluble fraction (log2)” value: -0.114 for the first, -0.0871 for the second.

First: HMAPKVHLLKVPVDKIREIIGTGGKVIRQITEETGAKIDISDDGSVKVSSPDQSSIDAATTWITGIIAE
Second: HMGTSRVQSILFDQSQWTINRAVHWLNTHHFISTKIDKTDKYLRFRQFDPNPDSHHATKRTSQGITFILE
The “soluble fraction (log2)” value of the first is lower: -0.102 for the first, at least 0.43 for the second.

“HMDDFPLKRGSKGNRVTLLQNALVKKYGAGILPKYGVDGMFGKEVEAALVHAKIPTTINEANYTKIV” and “HMDKGEQILQQALDKLPPKQRQVFEMRYFDEMPYREIATITETSEGALKASYHHAVKKIQQYISHL” are within 0.2 log units of each other in “soluble fraction (log2)” value: 0.104 for the first, -0.0313 for the second.

First: HMAPVLTATVNTTSGKLNMRAAASATSAKLTSIPRGATVTVLEKGTTWSRISYGGYTGYVMTQYLKFD
Second: HMEEKWKENYEKIKLFISINNRYPSVYSEDKEEGLIGSFMSNQKRRKNKLSKEKMALFEALPNWIWE
The “soluble fraction (log2)” value of the first is higher: -0.575 for the first, -0.812 for the second.

Compared with “HMNNSSIGERLKYQRKIKGYSQEELADRTNVTVRTIQRIEKEEVSPHLNTIKLLAIALDIEVDELVAL”, “HMHPEITLHPVRANIYSISVKNATSMEIYSVSGQLVGIRELKEGTNTLDLTGYINGVYIVNLQNKAFKLVK” is higher in “soluble fraction (log2)” value: -1.18 for the first, -0.465 for the second.

Compared with “HMHQKYIITGTRDTYVVSQGETLRTIAEHVYGSRGYARYIIEHNHITHPDDIPVGLTIRLPELELNPDYR”, “HMTTVDYDALRAAILQQVVSEDTTPALTTENTEIKYKFKFGLDTWVDLDGGKIAPAVSAKSYEIQISFKG” is higher in “soluble fraction (log2)” value: -0.209 for the first, 0.12 for the second.

With “HMSQLDITEARIVVSGGLGMQGPENFKLLEELAKVLGGAVGASRPVVDNGWREYSNQVGQTGKIVAPELYV” the “soluble fraction (log2)” value was -0.751.
